Five molecules from PMC11490574, “IGF2BP1 phosphorylation in the disordered linkers regulates ribonucleoprotein condensate formation and RNA metabolism” can be followed below.

Data set [1] deals with T1, IGF2BP1 S181E (UniProt Q9NZI8 1-577, S181E). In words: EMSA; EMSA: 25 mM HEPES pH 7.3, 150 mM NaCl, 5% glycerol, 2 mM EDTA, 10 ug/mL heparin, 0.5 mM TCEP, on ice, gel 4 C; FA: 25 mM HEPES 7.3, 150 mM NaCl, 0.025% Tween 20, 10 ug/mL heparin, 2 mM EDTA, 0.5 mM TCEP, 10 nM RNA, 20 C. The conditions noted are these: protein: recombinant; tags: GST removed by 3C. In general terms: Mobility shift assays separate free from complexed probe on a gel.

The target of data set [2] is T2, IGF2BP1 Y396E (UniProt Q9NZI8 1-577, Y396E). The data set is described as above. The conditions noted are these: protein: recombinant; tags: GST removed by 3C.
Data set [3] deals with T3, IGF2BP1 wild-type (UniProt Q9NZI8 1-577). The description is as above. The conditions noted are these: protein: recombinant; tags: GST removed by 3C.
The target in data set [4] is T1, IGF2BP1 S181E. Briefly: fluorescence anisotropy; EMSA: 25 mM HEPES pH 7.3, 150 mM NaCl, 5% glycerol, 2 mM EDTA, 10 ug/mL heparin, 0.5 mM TCEP, on ice, gel 4 C; FA: 25 mM HEPES 7.3, 150 mM NaCl, 0.025% Tween 20, 10 ug/mL heparin, 2 mM EDTA, 0.5 mM TCEP, 10 nM RNA, 20 C. The conditions noted are these: protein: recombinant; tags: GST removed by 3C; label: 5'-fluorescein. In general terms: Fluorescence polarisation rises when a labelled molecule tumbles more slowly, as on binding a larger partner.

Data set [5] has as its target T2, IGF2BP1 Y396E. Described as above. The conditions noted are these: protein: recombinant; tags: GST removed by 3C; label: 5'-fluorescein.
The target of data set [6] is T4, IGF2BP1 KH3-4dR (KH3GEEG-KH4GEEG) (UniProt Q9NZI8 1-577, K423E;K424E;K505E;G506E). The data set is described as above. The conditions noted are these: protein: recombinant; tags: GST removed by 3C; label: 5'-fluorescein.
The target of a further data set is IGF2BP1 KH3-4 (UniProt Q9NZI8 405-553). The description is as above. The conditions noted are these: protein: recombinant; tags: His removed by 3C; label: 5'-fluorescein.
Data set [7] concerns the target T5, IGF2BP1 RQ (UniProt Q9NZI8 1-577, R167Q;R168Q;R174Q;R178Q). The data set is described as above. The conditions noted are these: protein: recombinant; tags: GST removed by 3C; label: 5'-fluorescein.
Another data set has as its target IGF2BP1 KH1-4 (UniProt Q9NZI8 195-553). The data set is described as above. The conditions noted are these: protein: recombinant; tags: His removed by 3C; label: 5'-fluorescein.
Data set [8] addresses T3, IGF2BP1 wild-type. The data set is described as above. The conditions noted are these: protein: recombinant; tags: GST removed by 3C; label: 5'-fluorescein.
The target of data set [9] is T4, IGF2BP1 KH3-4dR (KH3GEEG-KH4GEEG). In words: EMSA; EMSA: 25 mM HEPES pH 7.3, 150 mM NaCl, 5% glycerol, 2 mM EDTA, 10 ug/mL heparin, 0.5 mM TCEP, on ice, gel 4 C; FA: 25 mM HEPES 7.3, 150 mM NaCl, 0.025% Tween 20, 10 ug/mL heparin, 2 mM EDTA, 0.5 mM TCEP, 10 nM RNA, 20 C. The conditions noted are these: protein: recombinant; tags: GST removed by 3C.
Data set [10] has as its target T5, IGF2BP1 RQ. The description is as above. The conditions noted are these: protein: recombinant; tags: GST removed by 3C.

T3 sequence (Q9NZI8 whole entry): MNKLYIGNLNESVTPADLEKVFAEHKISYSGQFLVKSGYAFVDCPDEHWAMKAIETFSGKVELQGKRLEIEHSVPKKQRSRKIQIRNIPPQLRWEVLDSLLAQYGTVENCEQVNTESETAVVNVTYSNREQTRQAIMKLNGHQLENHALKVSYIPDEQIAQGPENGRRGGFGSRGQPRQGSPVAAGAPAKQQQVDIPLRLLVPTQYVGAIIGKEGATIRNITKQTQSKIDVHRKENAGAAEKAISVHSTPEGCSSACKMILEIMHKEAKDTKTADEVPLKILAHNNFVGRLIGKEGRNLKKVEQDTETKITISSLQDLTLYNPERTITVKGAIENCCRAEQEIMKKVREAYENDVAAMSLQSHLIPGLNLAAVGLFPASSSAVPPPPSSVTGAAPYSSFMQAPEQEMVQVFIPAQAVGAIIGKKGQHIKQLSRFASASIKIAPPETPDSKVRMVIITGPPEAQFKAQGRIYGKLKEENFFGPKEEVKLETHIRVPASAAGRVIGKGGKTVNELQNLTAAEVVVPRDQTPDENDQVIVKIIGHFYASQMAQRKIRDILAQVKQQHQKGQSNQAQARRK
T2 sequence (Q9NZI8 whole entry Y396E): as the sequence (Q9NZI8 whole entry) above, with Y396E counted along it
T1 sequence (Q9NZI8 whole entry S181E): as the sequence (Q9NZI8 whole entry) above, with S181E counted along it
Chain of IGF2BP1 KH1-4 (Q9NZI8 195-553): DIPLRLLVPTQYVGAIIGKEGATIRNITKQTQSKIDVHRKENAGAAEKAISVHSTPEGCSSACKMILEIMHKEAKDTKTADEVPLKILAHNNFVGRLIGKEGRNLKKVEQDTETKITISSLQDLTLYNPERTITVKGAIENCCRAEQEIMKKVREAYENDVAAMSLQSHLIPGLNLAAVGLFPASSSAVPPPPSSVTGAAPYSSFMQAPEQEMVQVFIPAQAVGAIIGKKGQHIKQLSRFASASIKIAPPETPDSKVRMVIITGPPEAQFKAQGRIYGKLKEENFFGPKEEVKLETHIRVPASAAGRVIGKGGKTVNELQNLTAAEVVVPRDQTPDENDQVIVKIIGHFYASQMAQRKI
T5 sequence (Q9NZI8 whole entry R167Q/R168Q/R174Q/R178Q): as the sequence (Q9NZI8 whole entry) above, with R167Q, R168Q, R174Q, R178Q counted along it
T4 sequence (Q9NZI8 whole entry K423E/K424E/K505E/G506E): as the sequence (Q9NZI8 whole entry) above, with K423E, K424E, K505E, G506E counted along it
Chain of IGF2BP1 KH3-4 (Q9NZI8 405-553): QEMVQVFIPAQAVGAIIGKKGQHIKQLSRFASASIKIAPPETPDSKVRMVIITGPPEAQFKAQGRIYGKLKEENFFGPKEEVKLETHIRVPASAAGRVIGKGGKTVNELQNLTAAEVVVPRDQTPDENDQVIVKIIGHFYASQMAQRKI

B1: MYC 191 nt (ssRNA)
RNA: UGCGUGACCAGAUCCCGGAGUUGGAAAACAAUGAAAAGGCCCCCAAGGUAGUUAUCCUUAAAAAAGCCACAGCAUACAUCCUGUCCGUCCAAGCAGAGGAGCAAAAGCUCAUUUCUGAAGAGGACUUGUUGCGGAAACGACGAGAACAGUUGAAACACAAACUUGAACAGCUACGGAACUCUUGUGCGUAA
On to B1, for which the “apparent K (half saturation)” value with IGF2BP1 S181E [1] turned out to be 17.8 nM; with IGF2BP1 Y396E [2], 16.7 nM; with IGF2BP1 wild-type [3], 14.4 nM.

Regarding GUGACAUGUCCUCUCUGCUUGGUGUAAACCAUUCUU (ssRNA) [XBP1 36 nt], the “apparent K (half saturation)” value is 310 nM with IGF2BP1 S181E [4]; 423 nM with IGF2BP1 Y396E [5]; 186 nM in [6]; approximately 1500 nM with IGF2BP1 KH3-4; 204 nM with IGF2BP1 KH1-4; 312 nM with IGF2BP1 wild-type [8]. Further, the binding result with IGF2BP1 RQ [7] was “binds”.

For ACCGGACUGUUACCAACACCCACACCCC (ssRNA) [ACTB 28 nt], the “apparent K (half saturation)” value amounted to 1570 nM with IGF2BP1 KH3-4, 75.2 nM with IGF2BP1 KH1-4 and 68.5 nM with IGF2BP1 wild-type [8].

B2: EIF2A 200 nt (ssRNA)
RNA: AGAAAAUUCAGAAAGAAACAGCCCUUCUCCAGGAGCUGGAAGAUUUGGAAUUGGGUAUUUAAAGAUUCACGGAAAGCAAGUUGAUGACCAGAAAUCAGUGCAAACACAUCUUCUGUUAAACCCAUUGGUAUACACAGAAUAUUCCUGUGCCCACACUUAAUGUCAAUCUAUAAUUUUAACCAUUUAUCCAAGAUUCUACU
As to B2, the “apparent K (half saturation)” value in the data set with IGF2BP1 S181E [1] was 35.4 nM; with IGF2BP1 Y396E [2] it was 40.2 nM; with IGF2BP1 wild-type [3], 48.2 nM.

B3: XBP1 201 nt (ssRNA)
RNA: UCUCAAAUCUGCUUUCAUCCAGCCACUGCCCAAAGCCAUCUUCCUGCCUACUGGAUGCUUACAGUGACUGUGGAUACGGGGGUUCCCUUUCCCCAUUCAGUGACAUGUCCUCUCUGCUUGGUGUAAACCAUUCUUGGGAGGACACUUUUGCCAAUGAACUCUUUCCCCAGCUGAUUAGUGUCUAAGGAAUGAUCCAAUACU
In the case of B3, the “apparent K (half saturation)” value with IGF2BP1 S181E [1] was 17.1 nM; with IGF2BP1 Y396E [2], 22.9 nM; in data set [9] it was 64.7 nM; with IGF2BP1 wild-type [3] it was 41 nM. For the same molecule, the binding result in the data set with IGF2BP1 RQ [10] was “binds”.
